Blank lines part the entries; values can stand above or below the binder they belong to.
Assays:
Compound 2 = assay: SPR (Biacore)
[1] = target: i,i+4 non-binder Linker 3; assay: fluorescence polarization; xStAx41 derivative
i,i+7 binder Linker 9 = assay: fluorescence polarization; xStAx41 derivative
[2] = target: i,i+4 non-binder Linker 4; assay: fluorescence polarization; xStAx41 derivative
i,i+7 binder Linker 1 = assay: fluorescence polarization; xStAx41 derivative
[3] = target: i,i+7 non-binder Linker 4; assay: fluorescence polarization; xStAx41 derivative
i,i+4 binder Linker 2 = assay: fluorescence polarization; xStAx41 derivative
i,i+7 binder Linker 4 = assay: fluorescence polarization; xStAx41 derivative
[4] = target: i,i+4 non-binder Linker 8; assay: fluorescence polarization; xStAx41 derivative
i,i+4 binder Linker 5 = assay: fluorescence polarization; xStAx41 derivative
[5] = target: i,i+4 non-binder Linker 5; assay: fluorescence polarization; xStAx41 derivative
[6] = target: i,i+4 non-binder Linker 6; assay: fluorescence polarization; xStAx41 derivative
i,i+4 binder Linker 6 = assay: fluorescence polarization; xStAx41 derivative
[7] = target: i,i+7 non-binder Linker 7; assay: fluorescence polarization; xStAx41 derivative
i,i+4 binder Linker 4 = assay: fluorescence polarization; xStAx41 derivative
[8] = target: i,i+7 non-binder Linker 3; assay: fluorescence polarization; xStAx41 derivative
[9] = target: i,i+7 non-binder Linker 5; assay: fluorescence polarization; xStAx41 derivative
i,i+7 binder Linker 5 = assay: fluorescence polarization; xStAx41 derivative
[10] = target: i,i+4 non-binder Linker 2; assay: fluorescence polarization; xStAx41 derivative
[11] = target: i,i+7 non-binder Linker 8; assay: fluorescence polarization; xStAx41 derivative
i,i+4 binder Linker 1 = assay: fluorescence polarization; xStAx41 derivative
[12] = target: i,i+4 non-binder Linker 1; assay: fluorescence polarization; xStAx41 derivative
[13] = target: i,i+7 non-binder Linker 1; assay: fluorescence polarization; xStAx41 derivative
[14] = target: i,i+7 non-binder Linker 9; assay: fluorescence polarization; xStAx41 derivative
i,i+7 binder Linker 6 = assay: fluorescence polarization; xStAx41 derivative
i,i+7 binder Linker 7 = assay: fluorescence polarization; xStAx41 derivative
[15] = target: i,i+4 non-binder Linker 9; assay: fluorescence polarization; xStAx41 derivative
i,i+4 binder Linker 3 = assay: fluorescence polarization; xStAx41 derivative
i,i+7 binder Linker 2 = assay: fluorescence polarization; xStAx41 derivative
i,i+7 binder Linker 3 = assay: fluorescence polarization; xStAx41 derivative
i,i+4 binder Linker 9 = assay: fluorescence polarization; xStAx41 derivative
[16] = target: i,i+7 non-binder Linker 6; assay: fluorescence polarization; xStAx41 derivative
i,i+4 binder Linker 7 = assay: fluorescence polarization; xStAx41 derivative
[17] = target: i,i+4 non-binder Linker 7; assay: fluorescence polarization; xStAx41 derivative
[18] = target: i,i+7 non-binder Linker 2; assay: fluorescence polarization; xStAx41 derivative
i,i+7 binder Linker 8 = assay: fluorescence polarization; xStAx41 derivative
i,i+4 binder Linker 8 = assay: fluorescence polarization; xStAx41 derivative

- Kd (Compound 2): 0.45 µM
B1: beta-Catenin (other)
chain: HAVVNLINYQDDAELATRAIPELTKLLNDEDQVVVNKAAVMVHQLSKKEASRHAIMRSPQMVSAIVRTMQNTNDVETARCTAGTLHNLSHHREGLLAIFKSGGIPALVKMLGSPVDSVLFYAITTLHNLLLHQEGAKMAVRLAGGLQKMVALLNKTNVKFLAITTDCLQILAYGNQESKLIILASGGPQALVNIMRTYTYEKLLWTTSRVLKVLSVCSSNKPAIVEAGGMQALGLHLTDPSQRLVQNCLWTLRNLSDAATKQEGMEGLLGTLVQLLGSDDINVVTCAAGILSNLTCNNYKNKMMVCQVGGIEALVRTVLRAGDREDITEPAICALRHLTSRHQEAEMAQNAVRLHYGLPVVVKLLHPPSHWPLIKATVGLIRNLALCPANHAPLREQGAIPRLVQLLVRAHQDTQRRTSMGGTQQQFVEGVRMEEIVEGCTGALHILARDVHNRIVIRGLNTIPLFVQLLYSPIENIQRVAAGVLCELAQDKEAAEAIEAEGATAPLTELLHSRNEGVATYAAAVLFRMSED

- Kd [1]: > 50 µM
- Kd (i,i+7 binder Linker 9): 10.5 µM
- Kd [2]: > 50 µM
- Kd (i,i+7 binder Linker 1): 2.9 µM
- Kd [3]: > 50 µM
- Kd (i,i+4 binder Linker 2): 3.1 µM
- Kd (i,i+7 binder Linker 4): 8.7 µM
- Kd [4]: > 50 µM
- Kd (i,i+4 binder Linker 5): 8.6 µM
- Kd [5]: > 50 µM
- Kd [6]: > 50 µM
- Kd (i,i+4 binder Linker 6): 5.6 µM
- Kd [7]: > 50 µM
- Kd (i,i+4 binder Linker 4): 10.1 µM
- Kd [8]: > 50 µM
- Kd [9]: > 50 µM
- Kd (i,i+7 binder Linker 5): 14.6 µM
- Kd [10]: > 50 µM
- Kd [11]: > 50 µM
- Kd (i,i+4 binder Linker 1): > 50 µM
- Kd [12]: > 50 µM
- Kd [13]: > 50 µM
- Kd [14]: > 50 µM
- Kd (i,i+7 binder Linker 6): 5.3 µM
- Kd (i,i+7 binder Linker 7): 0.6 µM
- Kd [15]: > 50 µM
- Kd (i,i+4 binder Linker 3): 7.1 µM
- Kd (i,i+7 binder Linker 2): > 50 µM
- Kd (i,i+7 binder Linker 3): 25.4 µM
- Kd (i,i+4 binder Linker 9): 2.4 µM
- Kd [16]: > 50 µM
- Kd (i,i+4 binder Linker 7): 7.8 µM
- Kd [17]: > 50 µM
- Kd [18]: > 50 µM
- Kd (i,i+7 binder Linker 8): 16.3 µM
- Kd (i,i+4 binder Linker 8): 28.7 µM
B2: beta-catenin (other)
chain: ATQADLMELDMAMEPDRKAAVSHWQQQSYLDSGIHSGATTTAPSLSGKGNPEEEDVDTSQVLYEWEQGFSQSFTQEQVADIDGQYAMTRAQRVRAAMFPETLDEGMQIPSTQFDAAHPTNVQRLAEPSQMLKHAVVNLINYQDDAELATRAIPELTKLLNDEDQVVVNKAAVMVHQLSKKEASRHAIMRSPQMVSAIVRTMQNTNDVETARCTAGTLHNLSHHREGLLAIFKSGGIPALVKMLGSPVDSVLFYAITTLHNLLLHQEGAKMAVRLAGGLQKMVALLNKTNVKFLAITTDCLQILAYGNQESKLIILASGGPQALVNIMRTYTYEKLLWTTSRVLKVLSVCSSNKPAIVEAGGMQALGLHLTDPSQRLVQNCLWTLRNLSDAATKQEGMEGLLGTLVQLLGSDDINVVTCAAGILSNLTCNNYKNKMMVCQVGGIEALVRTVLRAGDREDITEPAICALRHLTSRHQEAEMAQNAVRLHYGLPVVVKLLHPPSHWPLIKATVGLIRNLALCPANHAPLREQGAIPRLVQLLVRAHQDTQRRTSMGGTQQQFVEGVRMEEIVEGCTGALHILARDVHNRIVIRGLNTIPLFVQLLYSPIENIQRVAAGVLCELAQDKEAAEAIEAEGATAPLTELLHSRNEGVATYAAAVLFRMSEDKPQDYKKRLSVELTSSLFRTEPMAWNETADLGLDIGAQGEPLGYRQDDPSYRSFHSGGYGQDALGMDPMMEHEMGGHHPGADYPVDGLPDLGHAQDLMDGLPPGDSNQLAWFDTDL

Source: patent publication US12398178 (dated 2025)
